Measured values taken from patent US5908790A, “Methods for removing heavy metals from aqueous solutions and for analysis” (Behring Diagnostics GmbH, priority 1990, dated 1999).

Key:
Type in all cases: binding
DTPA-Y = experiment: Quantitative inhibition ELISA of mAB, competitor DTPA-Y; conditions: solid phase Y benzyl-DTPA-HSA conjugate
Protocol: (§1) The ELISA comprised a solid phase which was loaded with a solution containing human serum albumin (HSA)-benzyl-DTPA. The supernatant which was to be tested and contained the mAB was preincubated with free complexone or the metal ion complex thereof, and its binding to the specific solid phase was measured. For this purpose, an enzyme amplification system which is coupled to an anti-mouse-immunoglobulin antibody was used. The details of this method are described in Examples 2 and 3.
(§2) The complexones DTPA and EDTA in noncomplexed and in complexed form (Example 4) were used as competitors. Additionally, the structurally related compounds transaconitic acid and 1,2-diaminoethane were used as inhibitors (see Tab. I). The excess amounts of competitor presented in Tab. […] These characteristics make it possible to use the mAB, e.g. coupled on filters or other solid supports, for removing both noncomplexed EDTA or DTPA and EDTA-metal ion or DTPA-metal ion complexes from liquids. Precipitation reactions of mAB-/EDTA-metal ion complexes are likewise suitable for removing the toxic metal ions.
(§3) Divisible 96-well polystyrene microtiter plates (U-shape) type B. supplied by Nunc, No. 4-60445 were employed as support material. The assay was carried out according to the following protocol. […]
(§4) (15) The extinctions are measured at 492 nm in the TITERTEK^R MULTISCAN. […]

[1] = Quantitative inhibition ELISA of mAB, competitor DTPA; conditions: competitor DTPA (noncomplexed); solid phase Y benzyl-DTPA-HSA conjugate
Protocol: as §1, §2, §3, §4

DTPA-Mn = experiment: Quantitative inhibition ELISA of mAB, competitor DTPA-Mn; conditions: solid phase Y benzyl-DTPA-HSA conjugate
Protocol: as §1, §2, §3, §4

DTPA-Cd = experiment: Quantitative inhibition ELISA of mAB, competitor DTPA-Cd; conditions: solid phase Y benzyl-DTPA-HSA conjugate
Protocol: as §1, §2, §3, §4

DTPA-Zn = experiment: Quantitative inhibition ELISA of mAB, competitor DTPA-Zn; conditions: solid phase Y benzyl-DTPA-HSA conjugate
Protocol: as §1, §2, §3, §4

DTPA-Cu = experiment: Quantitative inhibition ELISA of mAB, competitor DTPA-Cu; conditions: solid phase Y benzyl-DTPA-HSA conjugate
Protocol: as §1, §2, §3, §4

DTPA-Pb = experiment: Quantitative inhibition ELISA of mAB, competitor DTPA-Pb; conditions: solid phase Y benzyl-DTPA-HSA conjugate
Protocol: as §1, §2, §3, §4

[2] = Quantitative inhibition ELISA of mAB, competitor 1,2-diaminoethane; conditions: no inhibition up to the stated excess
Protocol: as §1, §2, §3, §4

[3] = Quantitative inhibition ELISA of mAB, competitor transaconitic acid; conditions: competitor trans-aconitic acid; no inhibition up to the stated excess
Protocol: as §1, §2, §3, §4

EDTA-Y = experiment: Quantitative inhibition ELISA of mAB, competitor EDTA-Y; conditions: solid phase Y benzyl-DTPA-HSA conjugate
Protocol: as §1, §2, §3, §4

[4] = Quantitative inhibition ELISA of mAB, competitor EDTA
Protocol: as §1, §2, §3, §4

EDTA-Mn = experiment: Quantitative inhibition ELISA of mAB, competitor EDTA-Mn; conditions: solid phase Y benzyl-DTPA-HSA conjugate
Protocol: as §1, §2, §3, §4

EDTA-Cd = experiment: Quantitative inhibition ELISA of mAB, competitor EDTA-Cd; conditions: solid phase Y benzyl-DTPA-HSA conjugate
Protocol: as §1, §2, §3, §4

EDTA-Zn = experiment: Quantitative inhibition ELISA of mAB, competitor EDTA-Zn; conditions: solid phase Y benzyl-DTPA-HSA conjugate
Protocol: as §1, §2, §3, §4

EDTA-Cu = experiment: Quantitative inhibition ELISA of mAB, competitor EDTA-Cu; conditions: solid phase Y benzyl-DTPA-HSA conjugate
Protocol: as §1, §2, §3, §4

EDTA-Pb = experiment: Quantitative inhibition ELISA of mAB, competitor EDTA-Pb; conditions: solid phase Y benzyl-DTPA-HSA conjugate
Protocol: as §1, §2, §3, §4

B1: mAB 2050/535: particularly suitable anti-EDTA/DTPA monoclonal antibody; VL and VH sequences in SEQ ID NO:1-4 (antibody, V domains shown)
VH: LQQSGAELVKPGASVKLSCTSGLNIKDTYINWVKQRPEQGLEWIGRIGPANGNTKYDPKFQGKATLTADTSSNTAYLQLSSLTSEDTAVYYCSRRWFFLYWGQGTTVT
VL: QLTQESALTTSPGETVTLTCRSSTGAVTTSNYATWVQEKPDHLFTGLIGGTKNRAPGVPARFSGSLIGDKAALTITGAQTEDEAIYFCALWYSNHWVFGGGTKLKI
Molar excess of competitor, which leads to 50% inhibition of binding to the solid phase antigen (DTPA-Y): 10^4 | Molar excess of competitor, which leads to 50% inhibition of binding to the solid phase antigen [1]: 10^2 | Molar excess of competitor, which leads to 50% inhibition of binding to the solid phase antigen (DTPA-Mn): 10^2 | Molar excess of competitor, which leads to 50% inhibition of binding to the solid phase antigen (DTPA-Cd): 10^2 | Molar excess of competitor, which leads to 50% inhibition of binding to the solid phase antigen (DTPA-Zn): 10^3 | Molar excess of competitor, which leads to 50% inhibition of binding to the solid phase antigen (DTPA-Cu): 10^3 | Molar excess of competitor, which leads to 50% inhibition of binding to the solid phase antigen (DTPA-Pb): 10^3 | Molar excess of competitor, which leads to 50% inhibition of binding to the solid phase antigen [2]: > 10^5 | Molar excess of competitor, which leads to 50% inhibition of binding to the solid phase antigen [3]: > 10^5 | Molar excess of competitor, which leads to 50% inhibition of binding to the solid phase antigen (EDTA-Y): 10^2 | Molar excess of competitor, which leads to 50% inhibition of binding to the solid phase antigen ([4]; competitor EDTA (noncomplexed), solid phase Y benzyl-DTPA-HSA conjugate): 10^2 | interaction with EDTA and the complexes thereof ([4]; statement in words, EDTA and its metal complexes): particularly strong | Molar excess of competitor, which leads to 50% inhibition of binding to the solid phase antigen (EDTA-Mn): 10^2 | Molar excess of competitor, which leads to 50% inhibition of binding to the solid phase antigen (EDTA-Cd): 10^2 | Molar excess of competitor, which leads to 50% inhibition of binding to the solid phase antigen (EDTA-Zn): 10^2 | Molar excess of competitor, which leads to 50% inhibition of binding to the solid phase antigen (EDTA-Cu): 10^2 | Molar excess of competitor, which leads to 50% inhibition of binding to the solid phase antigen (EDTA-Pb): 10^2
